Reference: paper PMC1952217 (The EMBO Journal, 2007)

Columns and labels:
Assay in all cases: FRET or BRET
[1] = target: T1, Smc1 tagged at its C-terminus with CFP or YFP (S. cerevisiae, UniProt P32908 1-1225)
T1 sequence: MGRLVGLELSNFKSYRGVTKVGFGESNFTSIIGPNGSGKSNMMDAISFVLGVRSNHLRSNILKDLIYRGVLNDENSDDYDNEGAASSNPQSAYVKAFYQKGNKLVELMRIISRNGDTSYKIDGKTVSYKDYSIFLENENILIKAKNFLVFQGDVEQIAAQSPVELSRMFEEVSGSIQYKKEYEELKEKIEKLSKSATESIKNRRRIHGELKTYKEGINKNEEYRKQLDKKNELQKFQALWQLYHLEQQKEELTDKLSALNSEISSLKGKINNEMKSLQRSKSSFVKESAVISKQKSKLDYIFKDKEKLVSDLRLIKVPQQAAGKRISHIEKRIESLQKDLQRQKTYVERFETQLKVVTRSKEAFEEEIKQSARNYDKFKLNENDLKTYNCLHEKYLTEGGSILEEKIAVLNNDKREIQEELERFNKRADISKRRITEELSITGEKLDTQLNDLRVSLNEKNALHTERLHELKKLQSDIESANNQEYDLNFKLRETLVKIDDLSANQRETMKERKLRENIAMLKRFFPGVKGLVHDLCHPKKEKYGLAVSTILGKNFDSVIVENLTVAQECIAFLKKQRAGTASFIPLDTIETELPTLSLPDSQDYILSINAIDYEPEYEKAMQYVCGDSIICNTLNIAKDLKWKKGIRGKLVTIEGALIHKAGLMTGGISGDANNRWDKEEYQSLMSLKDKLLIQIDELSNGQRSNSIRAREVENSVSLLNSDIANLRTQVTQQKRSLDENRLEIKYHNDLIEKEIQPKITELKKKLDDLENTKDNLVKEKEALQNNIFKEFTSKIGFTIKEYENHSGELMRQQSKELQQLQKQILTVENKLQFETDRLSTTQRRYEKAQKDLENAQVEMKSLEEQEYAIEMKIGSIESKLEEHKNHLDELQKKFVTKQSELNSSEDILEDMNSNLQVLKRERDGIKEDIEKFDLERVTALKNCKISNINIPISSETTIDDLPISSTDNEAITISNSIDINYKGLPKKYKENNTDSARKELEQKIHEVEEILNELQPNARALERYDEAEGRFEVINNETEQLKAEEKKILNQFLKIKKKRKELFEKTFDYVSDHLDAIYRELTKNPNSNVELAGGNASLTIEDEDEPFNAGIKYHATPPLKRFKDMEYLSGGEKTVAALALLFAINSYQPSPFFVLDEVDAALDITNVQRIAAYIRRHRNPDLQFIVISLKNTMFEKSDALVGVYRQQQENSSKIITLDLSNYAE

[2] = target: T2, Scc1 with CFP or YFP at its C-terminus (S. cerevisiae, UniProt Q12158 1-566)
T2 sequence: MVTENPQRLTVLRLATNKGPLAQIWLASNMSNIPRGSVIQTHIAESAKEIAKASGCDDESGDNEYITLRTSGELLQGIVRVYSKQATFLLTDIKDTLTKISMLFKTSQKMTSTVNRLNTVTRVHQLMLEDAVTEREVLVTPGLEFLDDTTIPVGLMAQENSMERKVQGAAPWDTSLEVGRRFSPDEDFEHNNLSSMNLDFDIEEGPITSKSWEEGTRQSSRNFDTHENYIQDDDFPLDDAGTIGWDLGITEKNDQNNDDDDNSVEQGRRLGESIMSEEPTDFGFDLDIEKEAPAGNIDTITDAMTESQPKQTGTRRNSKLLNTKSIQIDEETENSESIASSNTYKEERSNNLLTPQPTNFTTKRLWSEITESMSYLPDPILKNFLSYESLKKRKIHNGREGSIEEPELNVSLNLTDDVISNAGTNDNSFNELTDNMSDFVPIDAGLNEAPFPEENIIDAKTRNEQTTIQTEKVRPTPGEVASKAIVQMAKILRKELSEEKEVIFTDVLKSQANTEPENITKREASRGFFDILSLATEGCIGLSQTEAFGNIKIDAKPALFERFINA

[3] = target: T3, Smc3 tagged at its C-terminus with CFP or YFP (S. cerevisiae, UniProt P47037 1-1230)
T3 sequence: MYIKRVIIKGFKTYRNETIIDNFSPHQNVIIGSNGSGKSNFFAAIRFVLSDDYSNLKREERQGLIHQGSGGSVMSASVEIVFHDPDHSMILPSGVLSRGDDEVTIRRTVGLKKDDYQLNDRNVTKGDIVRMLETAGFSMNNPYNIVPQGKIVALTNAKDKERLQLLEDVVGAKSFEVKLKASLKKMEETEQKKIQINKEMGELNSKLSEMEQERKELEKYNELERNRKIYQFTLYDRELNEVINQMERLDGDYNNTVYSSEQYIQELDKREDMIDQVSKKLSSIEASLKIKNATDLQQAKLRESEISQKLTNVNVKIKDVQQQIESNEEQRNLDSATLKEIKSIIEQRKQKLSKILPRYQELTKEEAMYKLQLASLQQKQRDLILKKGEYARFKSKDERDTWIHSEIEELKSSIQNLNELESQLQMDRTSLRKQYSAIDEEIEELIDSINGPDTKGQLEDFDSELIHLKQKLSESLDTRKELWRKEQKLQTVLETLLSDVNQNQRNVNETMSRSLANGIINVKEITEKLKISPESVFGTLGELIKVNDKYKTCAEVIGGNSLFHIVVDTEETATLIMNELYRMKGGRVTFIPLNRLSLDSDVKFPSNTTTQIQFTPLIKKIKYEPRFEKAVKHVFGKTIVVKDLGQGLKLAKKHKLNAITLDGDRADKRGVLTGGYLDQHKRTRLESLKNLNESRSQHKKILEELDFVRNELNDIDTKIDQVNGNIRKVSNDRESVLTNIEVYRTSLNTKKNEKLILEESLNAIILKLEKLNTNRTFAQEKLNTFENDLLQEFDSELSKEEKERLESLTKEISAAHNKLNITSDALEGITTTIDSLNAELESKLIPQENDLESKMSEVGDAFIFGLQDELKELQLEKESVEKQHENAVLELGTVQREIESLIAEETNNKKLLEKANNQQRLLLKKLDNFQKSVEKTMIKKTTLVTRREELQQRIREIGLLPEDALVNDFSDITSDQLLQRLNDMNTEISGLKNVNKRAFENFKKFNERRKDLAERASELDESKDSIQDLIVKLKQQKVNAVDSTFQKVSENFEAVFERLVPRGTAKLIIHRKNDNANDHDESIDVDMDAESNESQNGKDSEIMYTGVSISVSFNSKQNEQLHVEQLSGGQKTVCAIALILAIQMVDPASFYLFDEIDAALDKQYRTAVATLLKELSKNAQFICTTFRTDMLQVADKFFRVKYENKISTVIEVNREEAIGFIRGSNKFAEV

B1: Scc3 with CFP or YFP at its C-terminus (natural protein)
chain: MTAVRRSTRIRTKSQVIEEDYDDEQNTSAQHVESDKITAKTQHEEEEEQDTGESEESSSEDDYEDQDDDDYVDTATAKRKSRKRKPKSASNTSSKRQKKKPTSAQKSAVSHAPAYHRSKKDQDQYLEIAKDFQPTELFDILSTSEDVSIEELLREWLETYSENRDKFLQEFINLLLNCCGSVARVEDHDVHSNESSNETIGEIQLLFQRQKLHEFYLLISKENKKRKNFKMGPLYQNFAEFMTKLLEVANDLQLLYVESDEDDTQIVTGNLVLDLLTWLSSFSVCKIRCFRYISTLTLYLFQDYLTQQAVNLEKNYLAKLSKQLSLEEKKKRPNNKTLEKLESTIAETQGSKVVIDSIIDNIVKLCFVHRYKDVSDLIRSESMLHLSIWIKNYPEYFLKVTFLKYFGWLLSDNSVSVRLQVTKILPHLIIQNHNSKSTDNSAIRQVFERFKTKILEVAIRDVNLDVRIHSIQVLTEASSLGYLDDSEILIISSLMFDEEFDPFKTSSFNKRSKFLSTVAKFLARVIKEKFDEFIKTHEDLPKEVDGLEVGPVVQVGIFIKILNDSLIYHLKDCAEVDSRTKIRMLTQAAEFLSPYISTHLKTICNLLISDTESNELIQKLQNSANNNSDDEDVDDEELDITPLFPIDRNSTILYLNVFHGLCAGANNPKIQTKDSVKEIVLPLFYDLLNAASIESADILCPLLESFITFSLDDWISIGYETELKKITDKTIKAFMDSTIGNSKVDMKYDIFAKFIHHIHHFEKKELQEKFLNQIATLKIHLKKFLQEKMDPNNSRDDYKDLTCSLYELYINKLTILGRDYPIEVDEELLQLFLNNFVSRIPIMFQDFDDSTAQEINFKMLVLLATWNLEKWREIIEKVRDYENSISKDLRSVWKPIAAIIGRLNTLVISLAATNETFENINSLFYLKWSACTSLMDIIVAIKIFELKLPADATTWRYSMSEQFPFYLHDNASKVLLKIFLYLESLFAKQVDVQLERVADEDANLNDLPETGFFENIETEFLLFTVKLKGLMKLNILDERFASRVALNKEKLGPLFKKIVDDTIMENPEPNKKNIQKAKSNQTQREKAPLQPNSERETDHANTENNDPDIPMTIDLEPIEESSQNNSELAPIEEHPTVVDAIDNSDEITQD
[1]
  FRETR: 1.35
[2]
  FRETR: 1.4
[3]
  FRETR: 1.37
